Test results published in patent US20260125455A1 (CLEVELAND CLINIC FOUNDATION, published 2026).

B1: MoC601 HuG4K (chimeric C601 antibody) (antibody, human IgG4 S228P, kappa, V domains shown)
VH: QVQLQQSGAELVKPGASVKISCKASGYAFSDYWMNWVKQRPGKGLEWIGQIYPGDDDTNYNGKFKGKATLTADKSSSTAYMQLSSLTSEDSAVYFCAREGYYGYTYVEYFDVWGTGTTVTVSS
VL: QIVLTQSPAIMSVSPGEKVTLTCSASSSVSYMHWYQQKSGTSPKRWIYDTSKLASGVPARFSGSGSGTSYSLTISSMEAEDAATYYCQQWTSNPLTFGAGTKLELRR
notes: also called chimeric antibody; chimeric 1C9
B2: C601HFKC4 HuG4K (antibody, human IgG4 S228P, kappa)
heavy: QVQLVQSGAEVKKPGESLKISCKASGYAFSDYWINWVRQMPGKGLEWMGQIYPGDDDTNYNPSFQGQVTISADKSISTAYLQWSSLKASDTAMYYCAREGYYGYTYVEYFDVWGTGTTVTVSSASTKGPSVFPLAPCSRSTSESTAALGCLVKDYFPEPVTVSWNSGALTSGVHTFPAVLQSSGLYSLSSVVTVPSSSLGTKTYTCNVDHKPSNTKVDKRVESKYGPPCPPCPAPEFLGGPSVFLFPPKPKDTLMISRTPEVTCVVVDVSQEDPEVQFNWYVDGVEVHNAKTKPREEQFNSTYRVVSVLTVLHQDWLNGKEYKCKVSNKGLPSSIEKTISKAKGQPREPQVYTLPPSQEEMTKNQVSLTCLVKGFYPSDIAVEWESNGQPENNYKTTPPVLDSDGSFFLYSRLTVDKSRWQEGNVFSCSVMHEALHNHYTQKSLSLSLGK
light: QIVLTQSPATLSLSPGERATLSCRASSSVSYLHWYQQKPGQSPRLWIYDTSKRATGIPARFSGSGSGTDYTLTISSLEPEDFAVYYCQQWTSNPLTFGQGTKLEIKRTVAAPSVFIFPPSDEQLKSGTASVVCLLNNFYPREAKVQWKVDNALQSGNSQESVTEQDSKDSTYSLSSTLTLSKADYEKHKVYACEVTHQGLSSPVTKSFNRGEC
notes: also called 3713; clone 3713

Assays:
[1] = molecular target: T1, human complement protein C6 (human, UniProt P13671 22-934); assay: SPR (Biacore 8K)
T1 construct: also called human C6; C6 antigen
T1 sequence (P13671 22-934 limits assumed): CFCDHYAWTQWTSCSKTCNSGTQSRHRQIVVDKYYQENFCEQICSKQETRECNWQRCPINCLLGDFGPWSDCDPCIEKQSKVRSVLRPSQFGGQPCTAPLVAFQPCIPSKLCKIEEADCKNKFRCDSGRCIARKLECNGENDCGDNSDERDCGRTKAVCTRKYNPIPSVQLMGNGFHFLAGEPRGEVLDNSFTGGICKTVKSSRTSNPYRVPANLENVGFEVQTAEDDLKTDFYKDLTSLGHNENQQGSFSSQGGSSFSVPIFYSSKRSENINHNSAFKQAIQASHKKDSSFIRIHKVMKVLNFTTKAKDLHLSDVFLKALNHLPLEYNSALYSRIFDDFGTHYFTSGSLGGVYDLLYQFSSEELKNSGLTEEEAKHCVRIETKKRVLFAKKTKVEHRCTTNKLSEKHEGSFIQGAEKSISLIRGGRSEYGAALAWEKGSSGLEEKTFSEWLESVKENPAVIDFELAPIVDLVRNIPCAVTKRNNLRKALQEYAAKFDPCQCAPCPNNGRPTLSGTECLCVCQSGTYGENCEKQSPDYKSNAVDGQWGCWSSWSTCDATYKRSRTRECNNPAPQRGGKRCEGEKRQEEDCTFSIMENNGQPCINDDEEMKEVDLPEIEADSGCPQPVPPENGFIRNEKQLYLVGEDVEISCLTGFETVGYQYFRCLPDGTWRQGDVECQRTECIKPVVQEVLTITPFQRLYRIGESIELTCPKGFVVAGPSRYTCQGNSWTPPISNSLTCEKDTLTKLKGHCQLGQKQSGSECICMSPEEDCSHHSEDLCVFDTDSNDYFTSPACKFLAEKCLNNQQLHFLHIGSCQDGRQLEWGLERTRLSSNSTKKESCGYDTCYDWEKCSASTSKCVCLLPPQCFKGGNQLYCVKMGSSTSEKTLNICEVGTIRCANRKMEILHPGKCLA
Procedure: (§1) The kinetics of C6 binding was compared for the purified chimeric and lead humanized C601 using surface plasmon resonance (SPR, Biacore 8K). IgG were captured on a protein G sensor chip and binding of C6 measured using a three-fold concentration series of C6 from 0.03 nM-25 nM (FIG. 5). In a second experiment, a two-fold concentration series from 0.31 nM-20 nM C6 was used (FIG. 6). For all antibodies, binding of C6 occurred in a concentration-dependent manner and data could be fitted using a 1:1 model to calculate the association rate (kₒₙ), dissociation rates (kd) and affinity constant (KD). The kinetic data are shown in Table 5, which indicates only small differences between the parameters determined from the two independent experiments.
Binding ELISAs used Nunc Maxisorp 384-well plates, wells coated with C6, C5b,6 complex or C5 (Complement Technology Inc, TX) and goat anti-human IgG (Fab specific) peroxidase secondary antibodies (Sigma-Aldrich, A0293) for detection. For the thermal stability assay, IgG supernatants were diluted to their EC₈₀ concentration, incubated at different temperatures for 10 min and C6 binding measured by ELISA with the binding signal plotted against temperature. […] Binding of C6 measured using a three-fold concentration series of C6 from 0.03 nM-25 nM and data were fitted using a 1:1 model in two independent experiments.

[2] = molecular target: T1, human complement protein C6; assay: ELISA, C6-coated wells
[3] = molecular target: T1, human complement protein C6; assay: BLI (Octet RED384), antibody on Protein G biosensors, C6 0.16-10 nM, 1:1 fit, experiment 1
Procedure: The binding of the purified chimeric molecules, MoC601 HuG4K and MoC601 HuG1KFab, was also confirmed by ELISA, where the anti-human IgG (Fab-specific) secondary reagent was used. The control mouse antibody bound as previously (EC₅₀ 0.11 nM). The EC₅₀ for purified MoC601 HuG4K (0.27 nM) was similar to that obtained for the MoC601 HuG4K supernatant sample above. […] The EC₅₀ value for the Fab molecule (0.48 nM) was higher than for the antibody, which would be expected since the Fab is unable to bind bivalently to the antigen on the well. A C6-binding assay was also set up on the Octet RED384 instrument. […] However, MoC601 MoG1K could be stably loaded onto anti-mouse Fc (AMC) biosensors. Concentrations of the mouse and chimeric antibodies were adjusted to give similar levels of loading on to the AMC and
Protein G biosensors respectively in subsequent experiments. There was no non-specific binding of C6 protein to unloaded sensors or sensors loaded with an isotype control antibody. A full kinetic experiment was run for purified MoC601 MoG1K and MoC601 HuG4K antibodies using seven concentrations of C6 (0.16-10 nM) and association and dissociation steps of 20 and 15 minutes respectively. The mouse and chimeric datasets were processed by subtracting the no antigen controls and the data were fitted to a 1:1 binding model. […]

[4] = molecular target: T1, human complement protein C6; assay: SPR (Biacore 8K), IgG on protein G chip, C6 0.03-25 nM 3-fold series, 1:1 fit
Procedure: as §1
(§2) Binding ELISAs used Nunc Maxisorp 384-well plates, wells coated with C6, C5b,6 complex or C5 (Complement Technology Inc, TX) and goat anti-human IgG (Fab specific) peroxidase secondary antibodies (Sigma-Aldrich, A0293) for detection. For the thermal stability assay, IgG supernatants were diluted to their EC₈₀ concentration, incubated at different temperatures for 10 min and C6 binding measured by ELISA with the binding signal plotted against temperature. Kinetics of C6 binding were measured by capturing antibodies from supernatant samples using Protein G biosensors and performing a 20 min association step with 2.5 nM C6 and a 20 min dissociation step using the Octet RED96. Precise kinetic measurements were obtained by surface plasmon resonance (Biacore 8K, Cytiva). The IgG were captured on a protein G sensor chip. Binding of C6 measured using a three-fold concentration series of C6 from 0.03 nM-25 nM and data were fitted using a 1:1 model in two independent experiments.

[5] = molecular target: T1, human complement protein C6; assay: SPR (Biacore 8K), IgG on protein G chip, C6 0.31-20 nM 2-fold series, 1:1 fit
Procedure: as §1

[6] = molecular target: T1, human complement protein C6; assay: SPR (Biacore 8K); remark: listed apart in the source
Procedure: as §1, §2

[7] = molecular target: T1, human complement protein C6; assay: C6-binding ELISA, A650 nm; sample 'PBS, non-incubated' (kept at 4 C)
Procedure: The C6-binding ELISA was then used to compare the binding abilities of the C601 antibodies that had been incubated in the 3 different sera to antibody samples that were incubated in PBS at 37 C or kept at 4 C (non-incubated).
as §2, with “Precise kinetic measurements were obtained by surface plasmon resonance (Biacore 8K, Cytiva). The IgG were captured on a protein G sensor chip.” left out
The Uncle instrument (Unchained Labs) was used to monitor unfolding via intrinsic fluorescence and aggregation by static light scattering across a temperature gradient to obtain melting temperatures (Tₘ). […] Isoelectric points were determined by capillary isoelectric focusing using a PA800+ (Beckman Coulter).

[8] = molecular target: T1, human complement protein C6; assay: C6-binding ELISA, A650 nm; sample 'PBS' (28 days at 37 C)
Procedure: For the serum stability assessment, samples of the purified candidate antibodies are normally incubated in mouse, human and cynomolgus serum at 37 C for 28 days and then tested in an antigen-binding ELISA. Since the anti-C6 antibodies are expected to bind to both human and cynomolgus C6 but not mouse C6, we anticipated that incubating in human or cynomolgus sera would reduce ELISA binding due to occupation of the antibody binding sites by C6 protein from the sera. Therefore, the chimeric and humanized antibodies were tested with human and mouse sera and with human sera from which the C6 protein has been depleted. […]
as §2, with “Precise kinetic measurements were obtained by surface plasmon resonance (Biacore 8K, Cytiva). The IgG were captured on a protein G sensor chip. Binding of C6 measured using a three-fold concentration series of C6 from 0.03 nM-25 nM and data were fitted using a 1:1 model in two independent experiments.” left out

Kd [1]	EC50 [2]	Kd [3]	kon [3]	Kd [4]	koff [4]	kon [4]	Kd [5]	koff [5]	kon [5]	Kd [6]	EC50 [7]	EC50 [8]	Binder
0.527 nM	0.2 nM	0.36 nM	690000 M⁻¹ s⁻¹	0.527 nM	0.000448 s⁻¹	850000 M⁻¹ s⁻¹	0.459 nM	0.000413 s⁻¹	900000 M⁻¹ s⁻¹	0.527 nM	–	–	B1
0.343 nM	0.19 nM	–	–	0.343 nM	0.000389 s⁻¹	1.13e+06 M⁻¹ s⁻¹	0.226 nM	0.000306 s⁻¹	1.36e+06 M⁻¹ s⁻¹	0.343 nM	0.17 nM	0.19 nM	B2
